Values of other authors as cited in article PMC10518620.
pKd: −log10 of the molar value.

Biological target: C3aR (Homo sapiens) (UniProt Q16581)
Sequence of UniProt Q16581 (Q16581 whole entry): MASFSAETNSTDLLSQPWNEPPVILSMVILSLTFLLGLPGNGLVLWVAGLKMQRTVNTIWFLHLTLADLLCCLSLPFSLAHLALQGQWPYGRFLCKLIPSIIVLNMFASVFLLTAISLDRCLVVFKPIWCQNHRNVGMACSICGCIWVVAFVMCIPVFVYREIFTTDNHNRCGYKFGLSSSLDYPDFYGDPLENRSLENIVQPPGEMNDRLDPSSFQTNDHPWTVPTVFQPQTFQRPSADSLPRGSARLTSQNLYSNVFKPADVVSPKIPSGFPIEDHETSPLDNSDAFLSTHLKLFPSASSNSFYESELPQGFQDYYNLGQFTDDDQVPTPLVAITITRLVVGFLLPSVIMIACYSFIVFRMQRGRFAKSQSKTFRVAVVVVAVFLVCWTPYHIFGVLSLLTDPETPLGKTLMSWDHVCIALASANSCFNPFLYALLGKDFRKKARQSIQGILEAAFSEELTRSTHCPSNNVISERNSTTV

Substance: C3a C3a (from UniProt P01024)
- pKd: 9.00
